# From patent publication US20210395323A1
# Molecular target: TNFR2 on human cells (Kym-1 cells; human CD3+ T cells) (human) (UniProt P20333)
# Experiment: cell-based or functional assay
# Sequence of TNFR2 on human cells (Kym-1 cells; human CD3+ T cells) (human) (P20333 23-461): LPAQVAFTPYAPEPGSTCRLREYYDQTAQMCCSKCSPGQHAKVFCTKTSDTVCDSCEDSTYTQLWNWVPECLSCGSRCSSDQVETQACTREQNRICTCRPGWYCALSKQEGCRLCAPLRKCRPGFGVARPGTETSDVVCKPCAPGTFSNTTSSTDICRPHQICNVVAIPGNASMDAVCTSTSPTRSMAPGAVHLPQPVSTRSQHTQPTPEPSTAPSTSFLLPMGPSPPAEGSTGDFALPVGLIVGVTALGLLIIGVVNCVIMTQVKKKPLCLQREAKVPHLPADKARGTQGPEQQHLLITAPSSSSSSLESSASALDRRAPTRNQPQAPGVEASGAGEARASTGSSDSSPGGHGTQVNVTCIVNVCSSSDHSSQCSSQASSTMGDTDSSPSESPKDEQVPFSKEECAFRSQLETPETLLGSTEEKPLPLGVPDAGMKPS
Substance,EC50 values (nM) of cell death induction using Kym-1 cells [nM],EC50 of Kym-1 cell viability (crystal violet assay after 16 h) [µM]
"human single-chain TNF variant (D143N/A145R, scTNFR2) (from UniProt Q8HZD9 77-232) (ligand)",0.347,
scTNFR2-Fc-scTNFR2 (Fc fusion),,8.5
VASP-scTNFR2 (ligand),,7
